*1 amine or outer side, *2 acyl side, *3 side chain or, on linkers, in order; H or OH if unused. Bridges are numbered along the chain shown (N, C = ends). Primed or numbered codes have the meaning given here. [ ]: non-standard residue; d: D form. The star is where a group is joined. Ttds = 1,13-diamino-4,7,10-trioxatridecan-succinamic acid, NCCCOCCOCCOCCCNC(=O)CCC(=O)*; tMeBn(DOTA-PP) = mesitylene bridge bearing DOTA via piperazine; APAc″ = 4-amino-1-carboxymethylpiperidine, NC1CCN(CC(=O)*)CC1; dE(AGLU) = D-glutamic acid bearing 1-amino-1-deoxy-D-glucitol; MeO36PEG = monodisperse PEG 36 units conjugated with acetyl; Pro(trans-4-NH2) = O=C([C@@H]1C[C@@H](N[*:3])CN1[*:1])[*:2]; DOTA = O=C(O)CN1CCN(CC(=O)O)CCN(CC(=O)*)CCN(CC(=O)O)CC1; Trp(5-Cl) = N[C@@H](Cc1c[nH]c2ccc(Cl)cc12)C(=O)O; Trp(6-Cl) = N[C@@H](Cc1c[nH]c2cc(Cl)ccc12)C(=O)O; Phe(3,5-Cl2) = N[C@@H](Cc1cc(Cl)cc(Cl)c1)C(=O)O; Pyridine(2,6-diCH2) = c1cc(C[*:1])nc(C[*:2])c1; Trp(7-aza) = N[C@@H](Cc1c[nH]c2ncccc12)C(=O)O; 2Lut″ = 2,6-lutidylidene linking two thiols; APAc = 4-amino-1-carboxymethylpiperidine; Phe(2-Cl) = N[C@@H](Cc1ccccc1Cl)C(=O)O; 1Nal = N[C@@H](Cc1cccc2ccccc12)C(=O)O; mXylylene = c1cc(C[*:1])cc(C[*:2])c1; Hyp = O=C(O)[C@@H]1C[C@@H](O)CN1; Cysteamide = C(CS[*:3])N[*:1]; hLeu = CC(C)CC[C@H](N)C(=O)O; GLUSEROL = not defined here; NTASEROL = not defined here; 2Lut(3) = 2,6-lutidylidene; hCys = N[C@@H](CCS)C(=O)O; Api = NC1(C(=O)O)CCNCC1; Thp = NC1(C(=O)O)CCOCC1; Aib = CC(C)(N)C(=O)O
What was measured:
[1] = biological target: human Gastric Inhibitory Peptide Receptor (GIPR) (human) (UniProt P48546); assay: FACS competition vs biotinylated GIP-057 on CHO-K1-hGIPR cells; category B: pIC50 7.1-8.0
[2] = biological target: biotinylated extracellular domain of the human GIP receptor (bioGIPR) (human) (UniProt P48546); assay: SPR single cycle kinetics, bioGIPR captured on chip; category A: pKD >9.0
[3] = biological target: biotinylated extracellular domain of the human GIP receptor (bioGIPR) (human) (UniProt P48546); assay: SPR single cycle kinetics, bioGIPR captured on chip; category A: t1/2 >15 min
[4] = biological target: human Gastric Inhibitory Peptide Receptor (GIPR) (human) (UniProt P48546); assay: FACS competition vs biotinylated GIP-057 on CHO-K1-hGIPR cells; category A: pIC50 >8.0
[5] = biological target: human Gastric Inhibitory Peptide Receptor (human) (UniProt P48546); assay: FACS competition with GIP-057 on CHO-K1-hGIPR cells; pIC50 category B: 7.1-8.0
human Gastric Inhibitory Peptide Receptor (human), sequence (P48546 22-466 limits assumed): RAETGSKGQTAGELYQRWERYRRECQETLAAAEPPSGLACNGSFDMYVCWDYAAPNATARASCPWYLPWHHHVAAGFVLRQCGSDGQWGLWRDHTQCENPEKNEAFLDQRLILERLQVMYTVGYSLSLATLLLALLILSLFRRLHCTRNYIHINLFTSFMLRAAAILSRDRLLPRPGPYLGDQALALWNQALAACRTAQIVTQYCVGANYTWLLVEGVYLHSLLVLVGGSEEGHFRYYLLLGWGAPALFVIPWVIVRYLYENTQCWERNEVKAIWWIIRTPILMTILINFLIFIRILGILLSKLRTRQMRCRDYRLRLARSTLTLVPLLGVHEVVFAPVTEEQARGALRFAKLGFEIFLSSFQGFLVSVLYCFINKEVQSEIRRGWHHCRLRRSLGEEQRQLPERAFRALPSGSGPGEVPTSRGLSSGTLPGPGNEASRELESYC

human Gastric Inhibitory Peptide Receptor (GIPR) (human), sequence (P48546 22-466 limits assumed): as above
biotinylated extracellular domain of the human GIP receptor (bioGIPR) (human), sequence (P48546 24-138 limits assumed): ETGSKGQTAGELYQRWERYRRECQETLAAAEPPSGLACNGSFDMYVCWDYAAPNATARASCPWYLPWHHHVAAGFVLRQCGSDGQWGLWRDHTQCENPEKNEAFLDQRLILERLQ

| Binder | pIC50 [1] [pic50] | further results |
| --- | --- | --- |
| Ac-DW[Trp(5-Cl)][Hyp]E[dL]C[Thp]LFC-{(dK)(DOTA)-NH2} (linker 7-11 via Pyridine(2,6-diCH2)) [Ac-Asp-Trp-5Clw-Hyp-Glu-leu-[Cys(2Lut)-Thp-Leu-Phe-Cys]-lys(DOTA)-NH2] | 7.1 to 8 | – |
| {DOTA-Ttds}-D[Phe(2-Cl)][Trp(5-Cl)][Hyp]E[dL]C[Thp]LIC-NH2 (linker 7-11 via 2Lut(3)) [DOTA-Ttds-Asp-Ocf-5Clw-Hyp-Glu-leu-[Cys(2Lut)-Thp-Leu-Ile-Cys]-NH2] | 7.1 to 8 | – |
| Ac-DW[Trp(5-Cl)][Hyp]P[dL]C[Thp]LIC-NH2 (linker 7-11 via Pyridine(2,6-diCH2)) [Ac-Asp-Trp-5Clw-Hyp-Pro-leu-[Cys(2Lut)-Thp-Leu-Ile-Cys]-NH2] | 7.1 to 8 | – |
| {NTASEROL}-DW[Trp(5-Cl)][Pro(trans-4-NH2)]E[dL]C[Api](DOTA)LIC-{APAc-GLUSEROL} (linker 7-11 via Pyridine(2,6-diCH2); reading uncertain) [NTASEROL-Asp-Trp-5Clw-Tap-Glu-leu-[Cys(2Lut)-Apc(DOTA)-Leu-Ile-Cys]-APAc-GLUSEROL] | – | pKD [2]: > 9 pkd; t1/2 [3]: > 15 min; pIC50 [4]: > 8 pic50 |
| {DOTA-Ttds}-D[Trp(6-Cl)]WPE[dL]C[Aib]LI[Cysteamide] (linker 7-11 via mXylylene) [DOTA-Ttds-Asp-6Clw-Trp-Pro-Glu-leu-[Cys(3MeBn)-Aib-Leu-Ile-AET]] | – | pIC50 [5]: 7.1 to 8 pic50 |
| Ac-DW[Phe(2,3-Cl2)][Hyp]E[dL]C[Thp]LIC-NH2 (linker 7-11 via 2Lut″) [Ac-Asp-Trp-Egp-Hyp-Glu-leu-[Cys(2Lut)-Thp-Leu-Ile-Cys]-NH2] | 7.1 to 8 | – |
| Ac-DW[Phe(3,5-Cl2)][Hyp]E[dL]C[Thp]LIC-NH2 (linker 7-11 via 2Lut″) [Ac-Asp-Trp-Egn-Hyp-Glu-leu-[Cys(2Lut)-Thp-Leu-Ile-Cys]-NH2] | 7.1 to 8 | – |
| {MeO36PEG-APAc″}-DW[Trp(5-Cl)][Hyp]E[dL]C[Api](DOTA)LIC-{dE(AGLU)-NH2} (linker 7-11 via Pyridine(2,6-diCH2)) [MeO36PEG-APAc-Asp-Trp-5Clw-Hyp-Glu-leu-[Cys(2Lut)-Apc(DOTA)-Leu-Ile-Cys]-glu(AGLU)-NH2] | – | pIC50 [5]: 7.1 to 8 pic50 |
| Ac-DW[Trp(5-Cl)][Hyp]E[dL]C[Thp]LIC-NH2 (linker 7-11 via tMeBn(DOTA-PP)) [Ac-Asp-Trp-5Clw-Hyp-Glu-leu-[Cys(tMeBn(DOTA-PP))-Thp-Leu-Ile-Cys]-NH2] | – | pIC50 [5]: 7.1 to 8 pic50 |
| XWXXEXCXLIC (not fully specified; N-term AGLU-Glutar-APAc; Hse; 5Clw; Hyp; leu (D-Leu); thioether cycle [Cys(2Lut)..Cys]; Apc(DOTA-glu(AGLU)); C-term APAc-glu(AGLU)-NH2) | – | pIC50 [5]: 7.1 to 8 pic50 |
| Ac-D[Phe(2-Cl)][Trp(5-Cl)][Hyp]E[dL]C[Thp]LIC-NH2 (linker 7-11 via Pyridine(2,6-diCH2)) [Ac-Asp-Ocf-5Clw-Hyp-Glu-leu-[Cys(2Lut)-Thp-Leu-Ile-Cys]-NH2] | 7.1 to 8 | – |
| Ac-DW[Trp(5-Cl)][Hyp]E[dL][hCys][Thp]LI[hCys]-NH2 (disulfide 7-11) [Ac-Asp-Trp-5Clw-Hyp-Glu-leu-[Hcy-Thp-Leu-Ile-Hcy]-NH2] | 7.1 to 8 | – |
| Ac-DW[Trp(7-aza)][Hyp]E[dL]C[Thp]LIC-NH2 (linker 7-11 via 2Lut″) [Ac-Asp-Trp-7Nw-Hyp-Glu-leu-[Cys(2Lut)-Thp-Leu-Ile-Cys]-NH2] | 7.1 to 8 | – |
| Ac-DW[Trp(5-Cl)][Pro(trans-4-NH2)](DOTA)E[dL]C[Thp]LFC-NH2 (linker 7-11 via 2Lut″) [Ac-Asp-Trp-5Clw-Tap(DOTA)-Glu-leu-[Cys(2Lut)-Thp-Leu-Phe-Cys]-NH2] | 7.1 to 8 | – |
| Ac-DW[Trp(5-Cl)][Hyp]W[dL]C[Thp]LIC-NH2 (linker 7-11 via Pyridine(2,6-diCH2)) [Ac-Asp-Trp-5Clw-Hyp-Trp-leu-[Cys(2Lut)-Thp-Leu-Ile-Cys]-NH2] | 7.1 to 8 | – |
| Ac-DW[1Nal][Pro(trans-4-NH2)](DOTA)E[hLeu]C[Aib]LIC-NH2 (linker 7-11 via mXylylene) [Ac-Asp-Trp-1Ni-Tap(DOTA)-Glu-Hle-[Cys(3MeBn)-Aib-Leu-Ile-Cys]-NH2] | 7.1 to 8 | – |
| {MeO36PEG-APAc}-DW[Trp(5-Cl)][Hyp]E[dL]C[Api](DOTA)LIC-{APAc-dE(AGLU)-NH2} (linker 7-11 via Pyridine(2,6-diCH2)) [MeO36PEG-APAc-Asp-Trp-5Clw-Hyp-Glu-leu-[Cys(2Lut)-Apc(DOTA)-Leu-Ile-Cys]-APAc-glu(AGLU)-NH2] | – | pIC50 [5]: 7.1 to 8 pic50 |
| {DOTA-Ttds}-DW[Phe(3,5-Cl2)][Hyp]E[dL]C[Thp]LIC-NH2 (linker 7-11 via Pyridine(2,6-diCH2)) [DOTA-Ttds-Asp-Trp-Egn-Hyp-Glu-leu-[Cys(2Lut)-Thp-Leu-Ile-Cys]-NH2] | 7.1 to 8 | – |

— patent US20250296971A1, “GASTRIC INHIBITORY PEPTIDE RECEPTOR LIGANDS” (priority 2021, published 2025)
